In paper PMC7899134 (Cell, 2021):

B1: human IL-23R (1–315), crystallography construct (domain or fragment, UniProt Q5VWK5-1 24-315, looked up)
chain: GITNINCSGHIWVEPATIFKMGMNISIYCQAAIKNCQPRKLHFYKNGIKERFQITRINKTTARLWYKNFLEPHASMYCTAECPKHFQETLICGKDISSGYPPDIPDEVTCVIYEYSGNMTCTWNAGKLTYIDTKYVVHVKSLETEEEQQYLTSSYINISTDSLQGGKKYLVWVQAANALGMEESKQLQIHLDDIVIPSAAVISRAETINATVPKTIIYWDSQTTIEKVSCEMRYKATTNQTWNVKEFDTNFTYVQQSEFYLEPNIKYVFQVRCQETGKRYWQPWSSLFFHKT
B7: human p40 (23-328), crystallography construct (natural protein)
chain: IWELKKDVYVVELDWYPDAPGEMVVLTCDTPEEDGITWTLDQSSEVLGSGKTLTIQVKEFGDAGQYTCHKGGEVLSHSLLLLHKKEDGIWSTDILKDQKEPKNKTFLRCEAKNYSGRFTCWWLTTISTDLTFSVKSSRGSSDPQGVTCGAATLSAERVRGDNKEYEYSVECQEDSACPAAEESLPIEVMVDAVHKLKYENYTSSFFIRDIIKPDPPKNLQLKPLKNSRQVEVSWEYPDTWSTPHSYFSLTFCVQVQGKSKREKKDRVFTDKTSATVICRKNASISVRAQDRYYSSSWSEWASVPCS

Key:
[1] = biological target: T1, IL-23 (IL-23p19/p40), crystallography construct (human, UniProt Q9NPF7 20-189; P29460 23-328); assay: crystal structure
T1 sequence (looked up) 1: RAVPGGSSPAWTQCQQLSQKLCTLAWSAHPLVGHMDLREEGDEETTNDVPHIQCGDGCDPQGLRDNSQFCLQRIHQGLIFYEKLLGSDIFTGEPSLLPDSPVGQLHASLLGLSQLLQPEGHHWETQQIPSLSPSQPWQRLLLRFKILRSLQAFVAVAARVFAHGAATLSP
T1 sequence (looked up) 2: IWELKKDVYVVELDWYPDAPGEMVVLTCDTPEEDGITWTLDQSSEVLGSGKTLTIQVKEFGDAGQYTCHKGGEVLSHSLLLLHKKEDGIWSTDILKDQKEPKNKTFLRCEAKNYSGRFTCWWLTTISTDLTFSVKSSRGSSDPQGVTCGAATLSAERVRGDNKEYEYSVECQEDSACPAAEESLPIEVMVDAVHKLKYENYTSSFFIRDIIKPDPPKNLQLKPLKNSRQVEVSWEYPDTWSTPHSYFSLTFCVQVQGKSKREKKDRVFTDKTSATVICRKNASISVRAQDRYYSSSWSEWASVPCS

[2] = biological target: B7; assay: crystal structure
[3] = biological target: T2, human IL-12Rβ1 D1–D2 (25–239) (human, UniProt P42701 25-239); assay: SPR
[4] = biological target: affi-IL-12Rβ1 D1–D5 (25–542) Tyr109Ser Gln132Leu (human, UniProt P42701 25-542, Tyr109Ser | Gln132Leu); assay: cryo-EM structure
human IL-23R (1–309) = biological target: T3, human IL-23R (1–309) (human, UniProt Q5VWK5-1 24-309); assay: cryo-EM structure
T3 sequence (looked up): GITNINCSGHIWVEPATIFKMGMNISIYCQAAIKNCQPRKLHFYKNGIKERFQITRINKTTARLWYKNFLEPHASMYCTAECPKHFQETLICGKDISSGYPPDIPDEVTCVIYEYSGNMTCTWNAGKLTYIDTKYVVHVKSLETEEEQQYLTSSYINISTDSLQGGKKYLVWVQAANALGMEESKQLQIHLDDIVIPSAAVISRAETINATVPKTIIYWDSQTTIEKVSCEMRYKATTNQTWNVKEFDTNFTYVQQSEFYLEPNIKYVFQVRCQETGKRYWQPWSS

[5] = biological target: affi-IL-12Rβ1 D1–D2 (25–239) Tyr109Ser Gln132Leu (human, UniProt P42701 25-239, Tyr109Ser | Gln132Leu); assay: SPR
[6] = biological target: T2, human IL-12Rβ1 D1–D2 (25–239); assay: crystal structure
[7] = biological target: B1; assay: crystal structure

Question: What does the source list for B1?
Answer: binding result [1]: binds; binding result [2]: binds

B2: IL-23 (IL-23p19 and p40), biotinylated, SPR construct (complex)
chain 1: PAWTQCQQLSQKLCTLAWSAHPLVGHMDLREEGDEETTNDVPHIQCGDGCDPQGLRDNSQFCLQRIHQGLIFYEKLLGSDIFTGEPSLLPDSPVGQLHASLLGLSQLLQPEGHHWETQQIPSLSPSQPWQRLLLRFKILRSLQAFVAVAARVFAHGAATLSP
chain 2: IWELKKDVYVVELDWYPDAPGEMVVLTCDTPEEDGITWTLDQSSEVLGSGKTLTIQVKEFGDAGQYTCHKGGEVLSHSLLLLHKKEDGIWSTDILKDQKEPKNKTFLRCEAKNYSGRFTCWWLTTISTDLTFSVKSSRGSSDPQGVTCGAATLSAERVRGDNKEYEYSVECQEDSACPAAEESLPIEVMVDAVHKLKYENYTSSFFIRDIIKPDPPKNLQLKPLKNSRQVEVSWEYPDTWSTPHSYFSLTFCVQVQGKSKREKKDRVFTDKTSATVICRKNASISVRAQDRYYSSSWSEWASVPCS
modifications: biotin on the AviTag (BirA ligase)
Question: Does B2 bind [3]?
Answer: binds

B3: IL-23 (IL-23p19 28–189 / p40 23–328 with BirA substrate peptide), T. ni expressed (complex, human)
chain 1: PAWTQCQQLSQKLCTLAWSAHPLVGHMDLREEGDEETTNDVPHIQCGDGCDPQGLRDNSQFCLQRIHQGLIFYEKLLGSDIFTGEPSLLPDSPVGQLHASLLGLSQLLQPEGHHWETQQIPSLSPSQPWQRLLLRFKILRSLQAFVAVAARVFAHGAATLSP
chain 2: IWELKKDVYVVELDWYPDAPGEMVVLTCDTPEEDGITWTLDQSSEVLGSGKTLTIQVKEFGDAGQYTCHKGGEVLSHSLLLLHKKEDGIWSTDILKDQKEPKNKTFLRCEAKNYSGRFTCWWLTTISTDLTFSVKSSRGSSDPQGVTCGAATLSAERVRGDNKEYEYSVECQEDSACPAAEESLPIEVMVDAVHKLKYENYTSSFFIRDIIKPDPPKNLQLKPLKNSRQVEVSWEYPDTWSTPHSYFSLTFCVQVQGKSKREKKDRVFTDKTSATVICRKNASISVRAQDRYYSSSWSEWASVPCS
modifications: biotinylated in vitro for the yeast staining
Question: Does B3 bind [4]?
Answer: binds

B4: human IL-23p19 (28–189), T. ni expressed (natural protein, UniProt Q9NPF7 28-189, looked up)
chain: PAWTQCQQLSQKLCTLAWSAHPLVGHMDLREEGDEETTNDVPHIQCGDGCDPQGLRDNSQFCLQRIHQGLIFYEKLLGSDIFTGEPSLLPDSPVGQLHASLLGLSQLLQPEGHHWETQQIPSLSPSQPWQRLLLRFKILRSLQAFVAVAARVFAHGAATLSP
Question: Does B4 bind (human IL-23R (1–309))?
Answer: binds

B5: human p40 (23–328) with BirA substrate peptide, T. ni expressed (natural protein, UniProt P29460 23-328, looked up)
chain: IWELKKDVYVVELDWYPDAPGEMVVLTCDTPEEDGITWTLDQSSEVLGSGKTLTIQVKEFGDAGQYTCHKGGEVLSHSLLLLHKKEDGIWSTDILKDQKEPKNKTFLRCEAKNYSGRFTCWWLTTISTDLTFSVKSSRGSSDPQGVTCGAATLSAERVRGDNKEYEYSVECQEDSACPAAEESLPIEVMVDAVHKLKYENYTSSFFIRDIIKPDPPKNLQLKPLKNSRQVEVSWEYPDTWSTPHSYFSLTFCVQVQGKSKREKKDRVFTDKTSATVICRKNASISVRAQDRYYSSSWSEWASVPCS
Question: Does B5 bind [4]?
Answer: binds

B6: human p40 (23–328) alone, biotinylated, SPR construct (natural protein, UniProt P29460 23-328, looked up)
chain: IWELKKDVYVVELDWYPDAPGEMVVLTCDTPEEDGITWTLDQSSEVLGSGKTLTIQVKEFGDAGQYTCHKGGEVLSHSLLLLHKKEDGIWSTDILKDQKEPKNKTFLRCEAKNYSGRFTCWWLTTISTDLTFSVKSSRGSSDPQGVTCGAATLSAERVRGDNKEYEYSVECQEDSACPAAEESLPIEVMVDAVHKLKYENYTSSFFIRDIIKPDPPKNLQLKPLKNSRQVEVSWEYPDTWSTPHSYFSLTFCVQVQGKSKREKKDRVFTDKTSATVICRKNASISVRAQDRYYSSSWSEWASVPCS
modifications: biotin on the AviTag (BirA ligase)
Question: What does the source list for B6?
Answer: binding result [3]: binds; binding result [5]: binds

Question: Does B7 bind [6]?
Answer: binds

B8: human IL-23p19 (20-189), crystallography construct (natural protein, UniProt Q9NPF7 20-189, looked up)
chain: RAVPGGSSPAWTQCQQLSQKLCTLAWSAHPLVGHMDLREEGDEETTNDVPHIQCGDGCDPQGLRDNSQFCLQRIHQGLIFYEKLLGSDIFTGEPSLLPDSPVGQLHASLLGLSQLLQPEGHHWETQQIPSLSPSQPWQRLLLRFKILRSLQAFVAVAARVFAHGAATLSP
Question: Does B8 bind [7]?
Answer: binds
